The assay has as its target T1, recombinant human TGFβ2 (human, UniProt P61812 303-414).
T1 construct: mature; also called TGFbeta2; rhTGFβ2
T1 sequence (looked up): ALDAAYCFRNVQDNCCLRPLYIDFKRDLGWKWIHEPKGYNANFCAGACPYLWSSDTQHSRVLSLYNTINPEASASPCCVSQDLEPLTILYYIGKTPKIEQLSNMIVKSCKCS
The assay is described as follows: A549 cell radioreceptor assay (nM IgG). Here is the method: Aliqouts of ¹²⁵I-TGFβ1 or TGFβ2 (70-90 TBq/mmol; Amersham International) at 20 pM are preincubated with antibody in binding medium at room temperature for 1 h. Duplicate samples of 0.5 ml of TGFβ/antibody mixtures are then added to the cell monlayers and are incubated at 37° C. for 1-2 h. Control wells contain TGFβ only. Unbound TGFβ is removed by washing 4 times with Hank's balanced salt solution containing 0.1% BSA. Cells are solubilised in 0.8 ml 25 mM Tris HCl pH 7.5, 10% glycerol, 1% Triton X-100 at room temperature for 20 min. The contents of each well are removed and ¹²⁵I measured in a gamma counter.
The ability of 6B1 IgG4 to inhibit binding of TGFβ isoforms to receptors was measured in a radioreceptor assay as described in example 4.

B1: 6B1 IgG4 (antibody, V domains shown)
VH: EVQLVESGGGVVQPGRSLRLSCAASGFTFSSYGMHWVRQAPGKGLEWVAVIWYDGSNKYYADSVKGRFTISRDNSKNTLYLQMDSLRAEDTAVYYCGRTLESSLWGQGTLVTVSS
VL: SSELTQDPAVSVALGQTVRITCQGDSLRSYYASWYQQKPGQAPVLVIYGKNNRPSGIPDRFSGSSSGNTASLTITGAQAEDEADYYCNSRDSSSTHRGVFGGGTKLTVLG
notes: Whole antibody: human gamma 4 and human lambda constant regions; FITC-labelled in the human tissue study; also called antibody 6B1
Take B1: the IC50 came out at 50 pM.
